Test results published in the Human Domainome abundance scans (Beltran et al. 2025).
± gives the uncertainty stated by the source.

B1: POU domain, class 4, transcription factor 2, residues 256 to 327; numbered along this chain, Q12837 (parent)
chain: RDLEAFAERFKQRRIKLGVTQADVGSALANLKIPGVGSLSQSTICRFESLTLSHNNMIALKPILQAWLEEAE

Variants of: B1
Experiment: abundance fitness (aPCA) (normalised: wild type 0, dead -1); higher = more abundant; growth selection in yeast, the domain comes from the species named
Conditions: Homo sapiens

First: RDLEAFAEPFKQRRIKLGVTQADVGSALANLKIPGVGSLSQSTICRFESLTLSHNNMIALKPILQAWLEEAE [R9P]
Second: RDLEAFAEGFKQRRIKLGVTQADVGSALANLKIPGVGSLSQSTICRFESLTLSHNNMIALKPILQAWLEEAE [R9G]
The abundance fitness of the first is lower: -0.782 ± 0.086 for the first, -0.061 ± 0.046 for the second.

RDLEAFAECFKQRRIKLGVTQADVGSALANLKIPGVGSLSQSTICRFESLTLSHNNMIALKPILQAWLEEAE [R9C] and RDLEAFAEAFKQRRIKLGVTQADVGSALANLKIPGVGSLSQSTICRFESLTLSHNNMIALKPILQAWLEEAE [R9A] are within error of each other in abundance fitness: 0.014 ± 0.15 for the first, -0.07 ± 0.062 for the second.

RDLEAFAENFKQRRIKLGVTQADVGSALANLKIPGVGSLSQSTICRFESLTLSHNNMIALKPILQAWLEEAE [R9N] and RDLEAFAEIFKQRRIKLGVTQADVGSALANLKIPGVGSLSQSTICRFESLTLSHNNMIALKPILQAWLEEAE [R9I] are within error of each other in abundance fitness: -0.005 ± 0.19 for the first, -0.347 ± 0.22 for the second.

RDLEAFAEMFKQRRIKLGVTQADVGSALANLKIPGVGSLSQSTICRFESLTLSHNNMIALKPILQAWLEEAE [R9M] and RDLEAFAEKFKQRRIKLGVTQADVGSALANLKIPGVGSLSQSTICRFESLTLSHNNMIALKPILQAWLEEAE [R9K] are within error of each other in abundance fitness: 0.095 ± 0.13 for the first, 0.007 ± 0.17 for the second.

RDLYAFAERFKQRRIKLGVTQADVGSALANLKIPGVGSLSQSTICRFESLTLSHNNMIALKPILQAWLEEAE [E4Y] and RDLMAFAERFKQRRIKLGVTQADVGSALANLKIPGVGSLSQSTICRFESLTLSHNNMIALKPILQAWLEEAE [E4M] are within error of each other in abundance fitness: 0.13 ± 0.12 for the first, -0.004 ± 0.047 for the second.

RDLVAFAERFKQRRIKLGVTQADVGSALANLKIPGVGSLSQSTICRFESLTLSHNNMIALKPILQAWLEEAE [E4V] and RDLFAFAERFKQRRIKLGVTQADVGSALANLKIPGVGSLSQSTICRFESLTLSHNNMIALKPILQAWLEEAE [E4F] are within error of each other in abundance fitness: -0.085 ± 0.058 for the first, -0.251 ± 0.18 for the second.

First: RDLGAFAERFKQRRIKLGVTQADVGSALANLKIPGVGSLSQSTICRFESLTLSHNNMIALKPILQAWLEEAE [E4G]
Second: RDLIAFAERFKQRRIKLGVTQADVGSALANLKIPGVGSLSQSTICRFESLTLSHNNMIALKPILQAWLEEAE [E4I]
The abundance fitness of the first is lower: -0.368 ± 0.063 for the first, -0.002 ± 0.1 for the second.

RDLWAFAERFKQRRIKLGVTQADVGSALANLKIPGVGSLSQSTICRFESLTLSHNNMIALKPILQAWLEEAE [E4W] and RDLKAFAERFKQRRIKLGVTQADVGSALANLKIPGVGSLSQSTICRFESLTLSHNNMIALKPILQAWLEEAE [E4K] are within error of each other in abundance fitness: -0.234 ± 0.075 for the first, -0.137 ± 0.089 for the second.

Going from RDLPAFAERFKQRRIKLGVTQADVGSALANLKIPGVGSLSQSTICRFESLTLSHNNMIALKPILQAWLEEAE [E4P] to RDLRAFAERFKQRRIKLGVTQADVGSALANLKIPGVGSLSQSTICRFESLTLSHNNMIALKPILQAWLEEAE [E4R], the abundance fitness rises from -0.335 ± 0.057 to -0.137 ± 0.054.

RDLQAFAERFKQRRIKLGVTQADVGSALANLKIPGVGSLSQSTICRFESLTLSHNNMIALKPILQAWLEEAE [E4Q] and RDLLAFAERFKQRRIKLGVTQADVGSALANLKIPGVGSLSQSTICRFESLTLSHNNMIALKPILQAWLEEAE [E4L] are within error of each other in abundance fitness: -0.134 ± 0.069 for the first, -0.165 ± 0.062 for the second.

RDLDAFAERFKQRRIKLGVTQADVGSALANLKIPGVGSLSQSTICRFESLTLSHNNMIALKPILQAWLEEAE [E4D] and RDLSAFAERFKQRRIKLGVTQADVGSALANLKIPGVGSLSQSTICRFESLTLSHNNMIALKPILQAWLEEAE [E4S] are within error of each other in abundance fitness: -0.282 ± 0.11 for the first, -0.141 ± 0.061 for the second.

RDLCAFAERFKQRRIKLGVTQADVGSALANLKIPGVGSLSQSTICRFESLTLSHNNMIALKPILQAWLEEAE [E4C] and RDLHAFAERFKQRRIKLGVTQADVGSALANLKIPGVGSLSQSTICRFESLTLSHNNMIALKPILQAWLEEAE [E4H] are within error of each other in abundance fitness: -0.273 ± 0.12 for the first, -0.119 ± 0.12 for the second.

RDLTAFAERFKQRRIKLGVTQADVGSALANLKIPGVGSLSQSTICRFESLTLSHNNMIALKPILQAWLEEAE [E4T] and RDLENFAERFKQRRIKLGVTQADVGSALANLKIPGVGSLSQSTICRFESLTLSHNNMIALKPILQAWLEEAE [A5N] are within error of each other in abundance fitness: -0.002 ± 0.074 for the first, 0.093 ± 0.18 for the second.

RDLELFAERFKQRRIKLGVTQADVGSALANLKIPGVGSLSQSTICRFESLTLSHNNMIALKPILQAWLEEAE [A5L] and RDLEQFAERFKQRRIKLGVTQADVGSALANLKIPGVGSLSQSTICRFESLTLSHNNMIALKPILQAWLEEAE [A5Q] are within error of each other in abundance fitness: 0.017 ± 0.12 for the first, -0.055 ± 0.12 for the second.

RDLETFAERFKQRRIKLGVTQADVGSALANLKIPGVGSLSQSTICRFESLTLSHNNMIALKPILQAWLEEAE [A5T] and RDLEPFAERFKQRRIKLGVTQADVGSALANLKIPGVGSLSQSTICRFESLTLSHNNMIALKPILQAWLEEAE [A5P] are within error of each other in abundance fitness: -0.201 ± 0.2 for the first, -0.277 ± 0.14 for the second.

RDLEIFAERFKQRRIKLGVTQADVGSALANLKIPGVGSLSQSTICRFESLTLSHNNMIALKPILQAWLEEAE [A5I] and RDLEWFAERFKQRRIKLGVTQADVGSALANLKIPGVGSLSQSTICRFESLTLSHNNMIALKPILQAWLEEAE [A5W] are within error of each other in abundance fitness: -0.008 ± 0.35 for the first, -0.491 ± 0.27 for the second.

First: RDLECFAERFKQRRIKLGVTQADVGSALANLKIPGVGSLSQSTICRFESLTLSHNNMIALKPILQAWLEEAE [A5C]
Second: RDLERFAERFKQRRIKLGVTQADVGSALANLKIPGVGSLSQSTICRFESLTLSHNNMIALKPILQAWLEEAE [A5R]
The abundance fitness of the first is lower: -0.311 ± 0.24 for the first, -0.001 ± 0.068 for the second.

RDLEFFAERFKQRRIKLGVTQADVGSALANLKIPGVGSLSQSTICRFESLTLSHNNMIALKPILQAWLEEAE [A5F] and RDLEVFAERFKQRRIKLGVTQADVGSALANLKIPGVGSLSQSTICRFESLTLSHNNMIALKPILQAWLEEAE [A5V] are within error of each other in abundance fitness: 0.033 ± 0.1 for the first, 0.004 ± 0.11 for the second.

RDLEEFAERFKQRRIKLGVTQADVGSALANLKIPGVGSLSQSTICRFESLTLSHNNMIALKPILQAWLEEAE [A5E] and RDLESFAERFKQRRIKLGVTQADVGSALANLKIPGVGSLSQSTICRFESLTLSHNNMIALKPILQAWLEEAE [A5S] are within error of each other in abundance fitness: -0.329 ± 0.35 for the first, -0.167 ± 0.097 for the second.
